Experimental findings from publication PMC8341984 are described below.

For this assay, the target named is CFP-cA1-cA1, two chicken ASIC1 subunits concatenated in a dimer with an N terminal CFP (chicken) (UniProt Q1XA76). Put plainly: FRET or BRET; FLIM-FRET: lifetime of the CFP donor at the plasma membrane of single live HEK293T ASIC1 KO cells co-transfected at varying cDNA ratios; multi-photon excitation at 860 nm, single exponential fits.

On to “C4 YFP, chicken ASIC1 with YFP at the C4 position of the C tail (from UniProt Q1XA76 1-527) (natural protein)”, for which the FRET efficiency (1:15 ratio) was 15%.
